According to patent publication US20100104554A1 (FUSION ANTIBODIES LIMITED A CORPORATION OF GREAT BRITIAN, published 2010):

T1: human cathepsin K (Calbiochem) (human, UniProt P43235 115-329)
T1 construct: also called CatK; Cat K
T1 sequence (looked up): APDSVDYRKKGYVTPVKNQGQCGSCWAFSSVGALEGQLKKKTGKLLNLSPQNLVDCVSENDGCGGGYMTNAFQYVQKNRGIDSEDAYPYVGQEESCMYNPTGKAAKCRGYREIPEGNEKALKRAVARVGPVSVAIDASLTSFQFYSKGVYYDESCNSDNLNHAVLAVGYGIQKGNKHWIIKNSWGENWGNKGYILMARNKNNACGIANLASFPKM


Experiments:
[1] = target: T2, human cathepsin S (Calbiochem) (human, UniProt P25774 115-331); experiment: cell-based or functional assay
[2] = target: T1, human cathepsin K (Calbiochem); experiment: fluorometric enzyme inhibition assay with Z-Phe-Arg-AMC, non-linear regression of progress curves
Procedure: (§1) Enzymatic assays were used to ascertain the ability of the rCatSPP to inhibit the peptidolytic activity of human cathepsins S, L, K, V and B (Calbiochem). Assays were performed in triplicate in 96-well microtitre plates in the presence of 100 mM sodium acetate, 1 mM ethylenediaminetetraacetate (EDTA), 0.1% Brij and 1 mM: dithiothreitol (DTT) at pH 5.5. CatS activity was monitored using the fluorigenic substrate carbobenzloxy-L-valinyl-L-vahnyl-L-arginylamido-4-methyl coumarin (Z-Val-Val-Arg-AMC, 25 μM), assays for cathepsins L, K and V were performed using carbobenzloxy-L-phenylalanyl-L-arginylamido-4-methyl coumarin (Z-Phe-Arg-AMC, 25 μM) and assays for CatB were performed using carbobenzloxy-L-arginylamido -L-arginylamido-4-methyl coumarin (Z-Arg-Arg-AMG, 25 μM) as substrates. Purified rCatSPP was added to assays as required at various concentrations (0-1000 nM). All experiments were performed using a Cytofluor® 4000 spectrofluorimeter with excitation at 395 nm and emission at 460 nm. To confirm that the rCatSPP-Fc also had the ability to inhibit the activity of CatS, flurometric assays were performed using CatS, Z-Val-Val-Arg-AMC, 25 μM) in the presence of the rCatSPP-Fc (0 nM-200 nM).
(§2) Fluorescence was monitored for 30 mins and the RFU plotted over time to generate fluorometric progress curves. […] All fluorometric assays were performed in replicates of three.

[3] = target: T3, human cathepsin V (Calbiochem) (human, UniProt O60911 114-334); experiment: as above
T3 construct: also called CatV; Cat V
Procedure: as §1, §2

[4] = target: T4, human cathepsin L (Calbiochem) (human, UniProt P07711 114-333, limits assumed); experiment: as above
T4 construct: also called CatL; Cat L
Procedure: as §1, §2

[5] = target: T2, human cathepsin S (Calbiochem); experiment: fluorometric enzyme inhibition assay with Z-VVR-AMC, rates taken from progress curves
Procedure: as §1, with “To confirm that the rCatSPP-Fc also had the ability to inhibit the activity of CatS, flurometric assays were performed using CatS, Z-Val-Val-Arg-AMC, 25 μM) in the presence of the rCatSPP-Fc (0 nM-200 nM).” left out
The inhibition of CatS peptidolytic activity using CatSPP Fc was measured. The rCatSPP-Fc was assessed by fluorometric assay using the fluorogenic substrate Z-VVR-AMC to determine if the species had the ability to retain its inhibition of CatS after the addition of the Fc-domain without any negative effects on the kinetics. […]

T4 sequence (P07711 114-333 limits assumed): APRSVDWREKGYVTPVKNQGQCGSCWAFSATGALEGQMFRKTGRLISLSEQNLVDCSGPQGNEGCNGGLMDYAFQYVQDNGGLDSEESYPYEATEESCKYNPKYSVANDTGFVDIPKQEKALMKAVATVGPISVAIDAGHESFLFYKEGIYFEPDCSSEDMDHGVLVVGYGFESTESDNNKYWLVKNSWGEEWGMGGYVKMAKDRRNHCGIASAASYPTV
T3 sequence (O60911 114-334 limits assumed): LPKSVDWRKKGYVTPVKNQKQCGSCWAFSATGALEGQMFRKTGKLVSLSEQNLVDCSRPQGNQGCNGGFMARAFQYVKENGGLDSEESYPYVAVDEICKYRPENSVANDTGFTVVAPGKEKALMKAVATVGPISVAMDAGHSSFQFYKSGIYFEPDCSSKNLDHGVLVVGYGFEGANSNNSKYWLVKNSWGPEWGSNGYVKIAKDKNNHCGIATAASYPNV

| EC50 of MDA-MB-231 tumour cell invasion (modified Boyden chamber, Matrigel) [1] [nM] | Ki [2] [nM] | Ki [3] [nM] | Ki [4] [nM] | Ki [5] [nM] | Binder |
| --- | --- | --- | --- | --- | --- |
| 78 | 17.6 | 4.8 | 0.62 | – | recombinant human cathepsin S propeptide (residues 17-113) with N-terminal hexahistidine tag, expressed from pQE30 (also called rCatSPP; CatSPP) MRGSHHHHHHGSQLHKDPTLDHHWHLWKKTYGKQYKEKNEEAVRRLIWEKNLKFVMLHNLEHSMGMHSYDLGMNHLGDMTSEEVMSLTSSLRVPSQWQRNITYKSNPNRVDLQPSLIS |
| 8.3 | – | – | – | 8.9 | recombinant cathepsin S propeptide with C-terminal IgG2 Fc domain and N-terminal His-tag, expressed from pRSET A-Fc (Fc fusion, About 46 kDa, made in E. coli BL21 (DE3) pLysS; also called rCatSPP-Fc; CatSPP-Fc; not shown: N-terminal His-tag and leader from the pRSET A vector; IgG2 Fc domain engineered into the pRSET vector) QLHKDPTLDHHWHLWKKTYGKQYKEKNEEAVRRLIWEKNLKFVMLHNLEHSMGMHSYDLGMNHLGDMTSEEVMSLMSSLRVPSQWQRNITYKSNPNR |
